Data set [1] deals with T1, GBV-B NS5B ΔCT19 (Hepatitis GB virus B, UniProt Q69422).
T1 construct: initiator methionine (N); made in house; host or cells: E. coli JM109 (DE3)
T1 sequence (Q69422 2275-2845 limits assumed): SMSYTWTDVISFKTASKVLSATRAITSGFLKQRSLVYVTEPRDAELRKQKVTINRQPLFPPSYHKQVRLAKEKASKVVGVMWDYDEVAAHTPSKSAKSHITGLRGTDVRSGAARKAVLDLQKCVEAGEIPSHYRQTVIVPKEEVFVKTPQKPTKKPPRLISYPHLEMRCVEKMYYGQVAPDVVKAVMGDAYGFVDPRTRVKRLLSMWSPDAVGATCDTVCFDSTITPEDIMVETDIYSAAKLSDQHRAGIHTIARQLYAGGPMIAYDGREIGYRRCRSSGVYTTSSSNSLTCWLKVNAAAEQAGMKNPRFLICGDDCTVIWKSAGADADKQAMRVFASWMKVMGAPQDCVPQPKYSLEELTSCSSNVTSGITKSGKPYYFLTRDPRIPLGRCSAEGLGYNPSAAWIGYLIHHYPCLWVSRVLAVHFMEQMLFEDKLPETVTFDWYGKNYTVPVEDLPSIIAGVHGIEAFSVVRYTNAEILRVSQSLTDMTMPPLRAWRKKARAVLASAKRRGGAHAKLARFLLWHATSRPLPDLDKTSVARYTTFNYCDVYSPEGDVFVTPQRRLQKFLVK
Put plainly: Scintillation proximity assay (SPA) of RdRp activity. It is filed as biochemical. The method, then: Scintillation proximity assay (SPA). SPA was used to determine the standard activity of RdRp, and performed under standard conditions as described previously by Ferrari et al., supra. Briefly, reaction mixtures (50 μl in total volume) containing, in addition to other buffer components (20 mM HEPES, pH7.3, 7.5 mM DTT, 10 mM MnCl2, 100 mM NaCl, 50 μg/ml BSA and 2 units of RNasin), 250 ng of poly(C), 25 ng of biotinylated oligo(G)12, 5 μM GTP/ 0.1 μCi of ^3H-GTP and 175 ng of GBV-B NS5B protein were incubated in a 96-well plate at room temperature for 3 hours. The reactions were terminated by addition of 50 μl of 100 mM EDTA in phosphate-buffered saline (PBS), the products were captured by SPA beads coated with streptavidin and ^3H-GMP incorporation was determined with a scintillation counter.
(In a scintillation proximity assay essentially only radioactivity close to the scintillant gives light.)

Data set [2] relates to GBV-B NS4A cofactor peptide (4A17; amino acids 20-36 of GBV-B NS4A).
Data set [3] deals with HCV NS4A cofactor peptide (4A13; aa 22-34 of HCV NS4A).
In data set [4] the target is T1, GBV-B NS5B ΔCT19. The data set can be described thus: RNA-binding (gel-shift) competition assay. Particulars: for affinity order of binding to NS5B ΔCT19: competition with nonradiolabeled RNA homopolymers. The protocol: RNA-binding assay. The RNA binding assay was performed in a 10 μl reaction mixture containing 20 mM HEPES, pH 7.3, 7.5 mM MnCl2, 7.5 mM DTT, 5% glycerol, 125 mM NaCl, 100 μg per ml of BSA, 1 unit of RNase inhibitor, 100 ng of GBV-B NS5B protein, 1 pmol of an end-labeled RNA probe with the sequence of 5′-U28GGACUU CGGUCC-3′, and increasing amounts of homopolymeric RNA as depicted indicated in FIG. 12. The probe bound most tightly to the GBV-B NS5B among all the RNA probes of similar length tested (data not shown). Following incubation at room temperature for 30 min, the reaction mixture was separated on a nondenaturing 6% polyacrylamide gel at 180 volts for 1.25 hrs in 0.5×TBE buffer. The gel was dried and subjected to autoradiography.

For data set [5], the system named is GBV-B NS4A 15-mer peptide (amino acids 22-36).
For data set [6], the system named is GBV-B NS4A 18-mer peptide (amino acids 29-46).
Data set [7] concerns GBV-B NS4A peptide (4A31; aa 16-46 of GBV-B NS4A).
The target of data set [8] is T1, GBV-B NS5B ΔCT19. Put plainly: Gel-based RdRp assay. It counts as biochemical. Conditions: ZnCl2 0, 1, 2.5, 5, 7.5, 10 μM. The protocol:
Gel-based RdRp assay. Standard activity assays were performed in a reaction mixture (40 μl) containing 20 mM HEPES, pH 7.3, 15 mM MnCl2, 100 μM of ATP, UTP, GTP and 10 μCi of α-^33P-CTP, 300 ng of purified protein and 0.2 μg of a 36-base synthetic RNA (5′-GGA25UAUAUAUAU-3′). The sequence of the RNA was designed to form a stem-loop at the 3′-end to support the “copy-back” priming of RNA synthesis. The polymerization reaction was performed at 30° C. for 1 hr and terminated by phenol and chloroform extraction. RNA was ethanol precipitated and separated on a 15% TBE/6 M urea polyacrylamide gel (Novex). The gel was fixed, vacuum dried and subjected to autoradiography.

Regarding `OCC(O)CO` [Glycerol], on GBV-B NS5B ΔCT19 [1] (poly C template, oligoG12 primer), the “concentration at which RdRp activity is inhibited” value is reported as “higher than 3%”.
Take “full-length HCV NS3 protease (HCV His-NS3)”: the “trans-cleavage of HCV and GBV-B NS4A/4B substrates by 50 nM HCV NS3 with 100 uM peptide (SDS-PAGE)” value in data set [2] is “protease activation is dependent upon an NS4A cofactor from the same virus (HCV NS3 not activated by the GBV-B NS4A peptide)”. Besides, in data set [3], the “trans-cleavage of GBV-B NS4A/4B substrate by HCV NS3 with or without 100 uM peptide (SDS-PAGE)” value was “dose-dependent and NS4A cofactor-enhanced cleavage activity at the NS4A/4B junction site”; the “trans-cleavage of GBV-B NS4A/4B substrate by full-length HCV NS3 with HCV NS4A peptide (SDS-PAGE)” value is recorded as “also generated the cleavage products in an HCV NS4A cofactor-dependent manner”; the “trans-cleavage of GBV-B NS5A/5B substrate by HCV NS3 with or without 100 uM peptide (SDS-PAGE)” value was “Cleavage of the GBV-B NS5A/5B site was inefficient and required 10 µM of HCV NS3 protease and was cofactor dependent”; the “trans-cleavage of HCV and GBV-B NS4A/4B substrates by 50 nM HCV NS3 with 100 uM peptide (SDS-PAGE)” value was “protease activation is dependent upon an NS4A cofactor from the same virus (HCV NS3 activated by the HCV NS4A peptide)”.
Consider poly (C), for which the “affinity order of binding to NS5B ΔCT19” value at GBV-B NS5B ΔCT19 [4] is given as “poly (U)>poly (G)>poly (A)>poly (C)”.
Consider `[Cl-].[Cl-].[Mg+2]` [Mg^2+, MgCl2], for which the “ability of divalent cation to support RdRp activity” value at GBV-B NS5B ΔCT19 [1] (concentrations as high as 20 mM) is reported as “could not replace Mn^2+ to support the activity”.
For poly (U), the “competition for binding of NS5B ΔCT19 to labeled RNA probe” value at GBV-B NS5B ΔCT19 [4] (0.1, 1, 10, 100 x probe) was “competes most efficiently for binding”. Also, the “affinity order of binding to NS5B ΔCT19” value on GBV-B NS5B ΔCT19 [4] was “poly (U)>poly (G)>poly (A)>poly (C)”.
Consider poly (A), for which the “affinity order of binding to NS5B ΔCT19” value at GBV-B NS5B ΔCT19 [4] was “poly (U)>poly (G)>poly (A)>poly (C)”.
With `[Cl][Mn][Cl]` [Mn^2+, MnCl2], the “optimal concentration of divalent cation for polymerase activity” value at GBV-B NS5B ΔCT19 [1] (titration 0-20 mM) came to 15 mM.
With “full-length GBV-B NS3 protease (GBV-B NS3-His)”, in data set [5], the “cofactor activity: enhancement of cleavage of GBV-B NS4A/4B substrate by 1.5 uM GBV-B NS3 (phosphorimaging)” value (from here on “cofactor activity: enhancement”) is recorded as “a 15-mer peptide (amino acids 22-36), which is the minimum region that efficiently activates protease activity for trans-cleavage”. Further, the “cofactor activity: enhancement” value in data set [6] is “did not possess the cofactor activity as it failed to enhance the protease activity”. Further, in data set [2], the “cofactor activity: enhancement” value is “a 17-mer peptide derived from amino acid 20 to 36 of NS4A retained the cofactor activity”; the “trans-cleavage of HCV (250 nM protease) and GBV-B (2 uM protease) NS4A/4B substrates by GBV-B NS3 with 100 uM peptide (SDS-PAGE)” value is on record as “protease activation is dependent upon an NS4A cofactor from the same virus (GBV-B NS3 activated by the GBV-B NS4A peptide)”. For the same molecule, in data set [7], the “trans-cleavage of GBV-B NS4A/4B substrate by 2 uM GBV-B NS3 with or without 20 uM peptide (SDS-PAGE)” value is “cleavage at the NS4A/NS4B junction by wild type GBV-B NS3 occurs only in the presence of the GBV-B NS4A cofactor”; the “trans-cleavage of GBV-B NS5A/5B substrate by 2 uM GBV-B NS3 with or without 20 uM peptide (SDS-PAGE)” value is “processing at the NS5A/NS5B junction is also NS4A cofactor-dependent”; the “trans-cleavage of in vitro translated HCV NS4A/4B, NS4B/5A and NS5A/5B substrates by GBV-B NS3 with or without 20 uM peptide (SDS-PAGE)” value is reported as “substrate processing was greatly improved by the NS4A peptide”. Besides, in data set [3], the “trans-cleavage of HCV (250 nM protease) and GBV-B (2 uM protease) NS4A/4B substrates by GBV-B NS3 with 100 uM peptide (SDS-PAGE)” value is reported as “protease activation is dependent upon an NS4A cofactor from the same virus (GBV-B NS3 not activated by the HCV NS4A peptide)”.
For `[Cl-].[Cl-].[Zn+2]` [Zn^2+, ZnCl2], the “inhibition of GBV-B RdRp activity” value against GBV-B NS5B ΔCT19 [8] is listed as “inhibits GBV-B RdRp activity at low-micromolar (μM) concentrations”.

These data come from US20010034019A1, “Chimeric HCV/GBV-B viruses” (priority 1999, published 2001).
